Results as given in patent US20250367237A1 (TENEOBIO, published 2025).

Tests used:
[1] = target: T1, recombinant human c-Kit (Acro Biosystems, #CD7-H52H4) (human, UniProt P10721 26-520); test: BLI (Octet HTX), antibody on AHC sensors, c-Kit in solution, 1:1 model
T1 construct: Bought protein; It was loaded on Ni-NTA sensors for binning, so it probably carries a His tag; also called antigen
Description: Table E3 summarizes affinity and epitope bin information for example anti-c-Kit single domain antibodies of the present disclosure. The affinity of each single domain antibody to recombinant human c-Kit (Acro Biosystems, #CD7-H52H4) was measured by Bio-layer interferometry (BLI) using an Octet HTX. AHC (Anti-hIgG Fc Capture) sensors were used to immobilize test antibody at 5 μg/mL. After baseline readings, sensors were dipped into antigen solutions (starting at 500 nM followed by a 7-point, 2-fold dilution series). Association and dissociation were measured for 180 and 240 seconds, respectively. Data were analyzed with Octet Data Analysis v11.0 HT (ForteBio) using a standard 1:1 binding model. Epitope bins for the single domain antibodies were determined by an in-tandem competition BLI binding experiment using an Octet HTX. The antigen (5 μg/mL) was loaded on the sensor Ni-NTA sensor, followed by a baseline in kinetic buffer. The antigen coated sensor was then dipped into a saturating concentration Antibody 1. A second baseline was then set for 300 seconds. The antigen-Antibody 1 complex was dipped into Antibody 2 solution for 180 seconds and then allowed to dissociate.

[2] = target: T2, human c-Kit expressed on NOMO-1 cells (human, UniProt P10721 26-976); test: flow cytometry cell binding dose curve, NOMO-1 cells expressing human c-Kit
T2 construct: Endogenous c-Kit of the NOMO-1 AML cell line
Description: (§1) The single domain antibodies were tested at a starting concentration of 50 nM, followed by 5-fold serial dilutions for an 8-point dose curve. All washes and dilutions of cells, antibodies, and reagents were performed using flow buffer (lx phosphate buffered saline (PBS), 1% bovine serum albumin (BSA), and 0.1% NaN₃). Cells were pelleted and resuspended at 1×10⁶ cells/mL in flow buffer. Then, 50 μL cells were combined with 50 μL of test antibody and incubated 30 minutes at 4° C., followed by two wash steps with flow buffer. Cells were then resuspended in 50 μL PE-conjugated secondary diluted to 1.25 μg/mL (Southern Biotech #2042-09) and incubated for 20 minutes at 4° C. After two wash steps, cells were resuspended in flow buffer and analyzed using a BD Celesta system. PE mean fluorescence intensity was plotted as a fold over background (cells incubated with secondary detection antibody only).
(§2) To determine cell binding EC50 values for example anti-c-Kit single domain antibodies of the present disclosure, cell binding dose curves were performed on SEM cells expressing human GNNK+c-Kit isoform, SEM cells expressing human GNNK− c-Kit isoform, and NOMO-1 cells expressing human c-Kit. The single domain antibodies were tested at a starting dose of 50 nM, followed by 5-fold serial dilutions for an 8-point dose curve as described in Example 2. The transformed data were plotted as an xy-graph using the non-linear regression curve fit (available in GraphPad Prism 8.4.3) to obtain the EC50 values (nM), which are summarized in Table E2.

[3] = target: T3, human c-Kit, GNNK+ isoform, expressed on SEM cells (human, UniProt P10721 26-976); test: flow cytometry cell binding dose curve, SEM cells expressing human GNNK+ c-Kit
T3 construct: also called SEM (GNNK+); CD117
Description: as §1, §2

[4] = target: T4, human c-Kit, GNNK- isoform, expressed on SEM cells (human, UniProt P10721 26-976); test: flow cytometry cell binding dose curve, SEM cells expressing human GNNK- c-Kit
T4 chain: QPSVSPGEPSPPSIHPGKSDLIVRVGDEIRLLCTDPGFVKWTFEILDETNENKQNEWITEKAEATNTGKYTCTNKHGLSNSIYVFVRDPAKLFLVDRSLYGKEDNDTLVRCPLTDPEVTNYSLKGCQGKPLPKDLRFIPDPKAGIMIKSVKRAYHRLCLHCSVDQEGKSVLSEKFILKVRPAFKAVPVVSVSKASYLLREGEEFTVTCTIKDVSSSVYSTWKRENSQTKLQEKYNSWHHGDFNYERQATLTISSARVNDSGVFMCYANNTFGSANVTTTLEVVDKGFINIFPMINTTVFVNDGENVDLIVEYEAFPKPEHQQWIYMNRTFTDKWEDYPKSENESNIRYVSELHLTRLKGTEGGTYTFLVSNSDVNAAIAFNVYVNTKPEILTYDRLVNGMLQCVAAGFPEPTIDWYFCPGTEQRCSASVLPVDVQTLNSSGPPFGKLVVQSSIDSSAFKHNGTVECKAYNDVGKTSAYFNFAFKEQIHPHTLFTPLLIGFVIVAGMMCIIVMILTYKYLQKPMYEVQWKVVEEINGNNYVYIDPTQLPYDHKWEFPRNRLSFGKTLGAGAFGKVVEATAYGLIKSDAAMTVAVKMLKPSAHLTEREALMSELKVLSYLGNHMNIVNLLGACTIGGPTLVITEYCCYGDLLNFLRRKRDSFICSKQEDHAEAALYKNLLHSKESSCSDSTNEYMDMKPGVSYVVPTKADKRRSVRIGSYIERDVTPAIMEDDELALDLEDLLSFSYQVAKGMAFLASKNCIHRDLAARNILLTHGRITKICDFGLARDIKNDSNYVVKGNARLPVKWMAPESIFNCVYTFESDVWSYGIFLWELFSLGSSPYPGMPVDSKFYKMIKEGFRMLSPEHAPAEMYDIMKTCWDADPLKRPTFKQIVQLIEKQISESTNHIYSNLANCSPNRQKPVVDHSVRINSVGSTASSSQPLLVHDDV

[5] = target: T2, human c-Kit expressed on NOMO-1 cells; test: flow cytometry, antibody supernatant on NOMO-1 cells expressing c-Kit, PE secondary
Description: (§3) Pelleted cells were resuspended in flow buffer (lx phosphate buffered saline (PBS), 1% bovine serum albumin (BSA), and 0.1% NaN₃) at 1.25×10⁶ cells/mL. Antibody-containing supernatants were diluted 1:5 in flow buffer and 40 μL cells plus 10 μL diluted antibody supernatant were incubated for 30 minutes at 4° C. Cells were washed with flow buffer and resuspended in 50 μL phycoerythrin (PE)-conjugated secondary antibody (Southern Biotech #2042-09) diluted in flow buffer to 1.25 μg/mL and incubated for 20 minutes at 4° C. After two wash steps, cells were resuspended in flow buffer and analyzed using a Guava easyCyte 8HT system. Table E1 summarizes the target binding activity of the anti-c-Kit single domain antibodies as fold over background MFI signal.

[6] = target: T3, human c-Kit, GNNK+ isoform, expressed …; test: flow cytometry, antibody supernatant on SEM cells expressing human c-Kit GNNK+, PE secondary
Description: as §3

[7] = target: T4, human c-Kit, GNNK- isoform, expressed …; test: flow cytometry, antibody supernatant on SEM cells expressing human c-Kit GNNK-, PE secondary

B1: anti-c-Kit single domain antibody Clone ID # 408198 (VHH)
VHH: QLQLQESGPGLVKPSETLSLTCTVSGGSISSSSYYWGWIRQPPGKGLEWIGSIDYNGGTYNNPSLKSRVTISVDTSKNQFSLKLSYVTAADTAVYYCARQNPRRYASGASDYRGQGTLVTVSS
notes: also called F18 family
[1]
  Kd: 7280 pM
[2]
  EC50: 320 pM
[3]
  EC50: 250 pM
[4]
  EC50: 580 pM
[5]
  fold over background MFI signal: 45.7 fold over background
[6]
  fold over background MFI signal: 388 fold over background
[7]
  fold over background MFI signal: 103 fold over background

B2: anti-c-Kit single domain antibody Clone ID # 408366 (VHH)
VHH: EVQLLESGGGLVQPGGSLRLSCAASGLTISTYAMSWVRQAPGKGLEWVSAISTGGSSTYYADSVKGRFTISRDNSKNTLYLQMNSLRAEDTAVYYCATGYDSSGHYYGGFDYRGQGTLVTVSS
notes: also called F06 family
[1]
  Kd: 4710 pM
[2]
  EC50: 390 pM
[3]
  EC50: 80 pM
[4]
  EC50: 90 pM
[5]
  fold over background MFI signal: 43.2 fold over background
[6]
  fold over background MFI signal: 945 fold over background
[7]
  fold over background MFI signal: 1760 fold over background

B3: anti-c-Kit single domain antibody Clone ID # 408389 (VHH)
VHH: EVQLLESGGGLVQPGGSLRLSCAASGFTFDSYAMSWVRQAPGEGLEWVSAISTGGGSTYYADSVKGRFTISRDNSKNMLFLQMNSLRAEDTAVYSCATGYDSSGYYYGGFDYRGQGTLVTVSS
notes: also called F06 family
[5]
  fold over background MFI signal: 43.9 fold over background
[6]
  fold over background MFI signal: 934 fold over background
[7]
  fold over background MFI signal: 1790 fold over background

B4: anti-c-Kit single domain antibody Clone ID # 407921 (VHH)
VHH: EVQLLESGGGLVQPGGSLRLSCAASGFTFDSYAMSWVRQAPGKGLEWVSAISVRGGSTYYADSVKGRFTISRDNSKNTLYLQMNSLRAEDTAVYSCATGYDPSGHYYGGFDYRGQGTLVTVSS
notes: also called F06 family
[1]
  Kd: 2770 pM
[2]
  EC50: 260 pM
[3]
  EC50: 30 pM
[4]
  EC50: 30 pM
[5]
  fold over background MFI signal: 30.5 fold over background
[6]
  fold over background MFI signal: 814 fold over background
[7]
  fold over background MFI signal: 1750 fold over background

B5: anti-c-Kit single domain antibody Clone ID # 407922 (VHH)
VHH: EVQLLESGGGLVQPGGSLRLSCAASGLTISSYAMSWVRQAPGKGLEWVSAISTGGSRTYYADSVKGRFTISRDNSKNTLYLQMNSLRAEDTAVYFCATGYDSSGHYYGGFDYRGQGTLVTVSS
notes: also called F06 family
[5]
  fold over background MFI signal: 31.1 fold over background
[6]
  fold over background MFI signal: 829 fold over background
[7]
  fold over background MFI signal: 1740 fold over background
